Data on one substance can be found in paper PMC4460869.

The target in the experiment is GST-tagged BmAPN4 (silkworm aminopeptidase N 4) (Bombyx mori).

The substance “trypsin-activated parasporal crystal toxin (PC) from Bacillus bombysepticus (domain or fragment)” displayed a proportion of viable BmAPN4-expressing Sf9 cells after PC, counted in 50 optical fields of 15.8% and a release of total intracellular LDH from BmAPN4-transfected Sf9 cells into the medium after trypsin-activated PC, 6 h; untransfected Sf9 cells not affected of 35.3%.
